“Also recorded” adds a separate entry of the source.
Experiments:
[1] = test system: NS2-3 non-structural proteins of BVDV; assay: Immunocytometric analysis of HEK 293A cells transfected with BVDV antigens; format: binding; conditions: 10 μg/ml antibody
Description: Additionally, binding of the chimeric recombinant antibodies to BVDV antigens was evaluated by immunocytometric analysis of transfected human embryonic kidney (HEK) 293A cells (Invitrogen), as previously described (see, e.g., Njongmeta et al. (2012) Vaccine 30:1624-1635). Briefly, HEK 293A monolayers grown in 6-well tissue culture plates were transfected with 2 μg/well of plasmid (pcDNA3.3, Invitrogen) encoding BVDV antigens (N^pro, E2, or non-structural proteins NS2-3) using Lipofectamine 2000 reagent (Invitrogen), and incubated for 48 hr at 37° C. with 5% CO2. The monolayers were fixed with ice-cold 100% methanol for 10 minutes, rinsed with PBS, and after blocking for 1 hr with PBS containing 5% fetal bovine serum (blocking buffer), the monolayers were incubated at room temperature for 1 hr with 10 μg/ml of a mouse anti-FLAG M2-alkaline phosphatase (AP)-conjugate (Sigma) in blocking buffer or 10 μg/ml of the chimeric recombinant antibodies (H12 or B8). […] Following washes in blocking buffer, the AP activity in all the wells was detected using Fast Red AS-MX substrate (Sigma). […]

Parental U2OS = assay: Flow cytometry binding to parental cells; conditions: cell culture supernatant containing expressed IgG, anti-Human Fc detection
Description: (§1) Briefly, a cell line expressing functionally validated CXCR1 derived from U2OS cells was obtained from DiscoveRx and cultured per manufacturer's instructions (Cat#93-0226C3, DiscoveRx Corporation, Freemont, Calif.). The parental cell line U20S was obtained from ATCC and cultured under the same conditions as the CXCR1 cells. Cell culture supernatants from Example 2 above were then tested for binding to cells by flow cytometry. The adherent U20S or CXCR1-U20S cells were dissociated with Accutase (Innovative Cell Technologies, Inc., San Diego, Calif.), neutralized with an equal volume of media containing 10% serum, centrifuged at 1000 g, and resuspended in PBS with 2% BSA. Next, cells were dispensed into microtiter plates to achieve between 30,000 to 300,000 cells per well, centrifuged again, and resuspended in cell culture supernatant containing expressed IgG, or a dilution of IgG-containing cell culture supernatant. A fluorescent-conjugated anti-Human Fc antibody was used to detect binding of the expressedBLV1H12-IL8 fusion proteins to cells.

CXCR1-U2OS = target: T1, CXCR1-U2OS (Homo sapiens, UniProt P25024); assay: Flow cytometry binding to CXCR1 expressing cells
T1 construct: host or cells: U2OS-derived CXCR1 cell line, purchased
T1 sequence (P25024 1-350): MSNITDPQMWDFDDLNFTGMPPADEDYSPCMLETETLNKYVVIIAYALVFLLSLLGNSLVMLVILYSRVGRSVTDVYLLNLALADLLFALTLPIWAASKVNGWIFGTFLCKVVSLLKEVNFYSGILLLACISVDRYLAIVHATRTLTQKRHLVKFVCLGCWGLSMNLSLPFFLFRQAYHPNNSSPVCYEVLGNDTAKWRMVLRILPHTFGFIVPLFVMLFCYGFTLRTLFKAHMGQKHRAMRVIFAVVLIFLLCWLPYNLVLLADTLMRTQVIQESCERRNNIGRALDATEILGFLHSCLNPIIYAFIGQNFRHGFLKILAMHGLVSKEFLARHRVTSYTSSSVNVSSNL
Description: as §1

[2] = Pharmacokinetics of BLV1H12-bGCSF fusion antibodies in mice; format: in vivo; conditions: BALB/c mice, 70 μg injected
Description: For PK study in mice, 70 μg of the immunoglobulin constructs described herein were injected into 3 BALB/c mice per group. Blood samples were drawn from time 0 to 14 days with extended intervals and analyzed by ELISA using anti-human IgG Fc antibody with horseradish peroxidase (HRP) labeled (KPL) and anti-6×His antibody with HRP labeled (Clontech). Data were normalized by taking maximal concentration at the first time point (30 min).

Human mPB CD34+ cells = assay: Proliferative activity on human granulocyte progenitors (flow cytometry); format: cell-based; conditions: 7 days
Description: Human mPB CD34^+ cells were purchased from AllCells. Cells were resuspended in HSC expansion medium (StemSpan SFEM, StemCell Technologies) supplemented with 1× antibiotics and the following recombinant human cytokines thrombopoietin, IL6, Flt3 ligand, and stem cell factor (100 ng/mL, R & D Systems), then plated in 96-well plates (1000 cells per well), with varied concentrations of BLV1H12-bGCSF fusion antibodies. Cells were cultured for 7 days at 37° C. in a 5% CO2 incubator, then analyzed by flow cytometry to measure cell number and expression of CD45ra and CD41. Cells were stained in staining medium (HBSS supplemented with 2% FBS and 2 mM EDTA) at 4° C. for 1 h with PECy7 anti-CD45ra and eFluor 450 anti-CD41 (eBiosciences), then washed with staining medium and analyzed. Multicolor analysis for cell phenotyping was performed on a LSR II flow cytometer (Becton Dickinson). FIGS. 10A-10E and Tables 9-10 show the human granulocyte progenitor cell proliferative activities of the Ab-GCSF fusion antibodies.

Mouse NFS-60 cells = assay: Proliferation assay on mouse NFS-60 cells (AlamarBlue); format: cell-based; conditions: 72 hours
Description: Mouse NFS-60 cells were obtained from American Type Culture Collection (ATCC), VA, and cultured in RPMI-1640 medium supplemented with 10% fetal bovine serum (FBS), 0.05 mM 2-mercapoethanol and 62 ng/ml human macrophage colony stimulating factor (M-CSF). For proliferation assay, mouse NFS-60 cells were washed three times with RPMI-1640 medium and resuspended in RPMI-1640 medium with 10% FBS and 0.05 mM 2-mercapoethanol at a density of 1.5×10^5 cells/ml. In 96-well plates, 100 μl of cell suspension was added into each well, followed by the addition of varied concentrations of bGCSF, BLV1H12 antibody, and the immunoglobulin constructs described herein, Equal volume of PBS buffer was added into the control wells. The plates were incubated at 37° C. in a 5% CO2 incubator for 72 hours. Cells were then treated with AlamarBlue (Invitrogen) ( 1/10 volume of cell suspension) for 4 hours at 37° C. Fluorescence at 595 nm for each well was read to indicate the cell viability.

mice neutrophils = assay: Neutrophils counts in mice; format: in vivo; conditions: mice blood, 10th day post-injection, neutrophils among white blood cells
Description: On the 10th day after injection of BLV1H12-bGCSF fusion antibodies into mice for PK study, blood samples were drawn from the mice and stained using the Diff Quick Staining Kit (Thermo Fisher Scientific, IL). Neutrophils and white blood cells were counted under microscope and the percentages of neutrophils were analyzed. FIGS. 12A-12B and Table 12 show proliferative activities of BLV1H12-bGCSF fusion antibodies on mice neutrophils that are blood stained and counted at the 10th day post-injection.

B1: H12 (protein, listed as Bos taurus)
chain: CVIVHQKTTQQSSCPAGFRDCVACTPGPESCCRSGCDGARRRVGLRYFFDSTSPITTYTYEHHIDAW
modifications: H12
[1]; HEK293A cells transfected with the NS2-3 non-structural proteins of BVDV
  binding to HEK293A cells transfected with NS2-3: binds NS2-3 on cells; also recorded: strongly binds
[1]; untransfected HEK293A cells
  binding to untransfected cells: weakly bound

B2: BLV1H12-IL8: human IL-8 (amino acids 26-99) replacing the knob domain of BLV1H12; heavy chain variable region SEQ ID NO: 38 (antibody)
VH: QVQLRESGPSLVKPSQTLSLTCTASGFSLSDKAVGWVRQAPGKALEWLGSIDTGGNTGYNPGLKSRLSITKDNSKSQVSLSVSSVTTEDSATYYCTSVHQETKKYQSPRSAKELRCQCIKTYSKPFHPKFIKELRVIESGPHCANTEIIVKLSDGRELCLDPKENWVQRVVEKFLKRAENSGSGSYTYNYEWHVDVWGQGLLVTV
light: QAVLNQPSSVSGSLGQRVSITCSGSSSNVGNGYVSWYQLIPGSAPRTLIYGDTSRASGVPDRFSGSRSGNTATLTISSLQAEDEADYFCASAEDSSSNAVFGSGTTLTVLGQPKSPPSVTLFPPSTEELNGNKATLVCLISDFYPGSVTVVWKADGSTITRNVETTRASKQSNSKYAASSYLSLTSSDWKSKGSYSCEVTHEGSTVTKTVKPSECS
Parental U2OS
  Median Arbitrary Fluorescence Units (AFU): 76 AFU
CXCR1-U2OS
  ratio of median fluorescence (IgG binding) of CXCR1-U2OS cells versus U2OS parental cells: has specificity for CXCR1
CXCR1-U2OS; CXCR1-U2OS cells, cell culture supernatant containing expressed IgG, anti-Human Fc detection
  Median Arbitrary Fluorescence Units (AFU): 707 AFU

B3: bGCSF: bovine G-CSF (granulocyte colony-stimulating factor) (protein, listed as Bos taurus)
chain: TPLGPARSLPQSFLLKCLEQVRKIQADGAELQERLCAAHKLCHPEELMLLRHSLGIPQAPLSSCSSQSLQLTSCLNQLHGGLFLYQGLLQALAGISPELAPTLDTLQLDVTDFATNIWLQMEDLGAAPAVQPTQGAMPTFTSAFQRRAGGVLVASQLHRFLELAYRGLRYLAEP
modifications: bGCSF
[2]; 0.5 hour
  Percentage (normalized to maximal concentration at the first time point, 30 min): 100.00%
[2]; 1 hour
  Percentage (normalized to maximal concentration at the first time point, 30 min): 79.52%
[2]; 3 hour
  Percentage (normalized to maximal concentration at the first time point, 30 min): 56.81%
[2]; 6 hour
  Percentage (normalized to maximal concentration at the first time point, 30 min): 14.94%
[2]; 24 hour
  Percentage (normalized to maximal concentration at the first time point, 30 min): 4.08%
[2]; 48 hour
  Percentage (normalized to maximal concentration at the first time point, 30 min): 0.00%
[2]; 72 hour
  Percentage (normalized to maximal concentration at the first time point, 30 min): 0.00%
Human mPB CD34+ cells; 0.55886 ng/mL
  Number of CD45RA− CD41−: 7354
Human mPB CD34+ cells; 1.67657 ng/mL
  Number of CD45RA− CD41−: 9776
Human mPB CD34+ cells; 5.02972 ng/mL
  Number of CD45RA− CD41−: 12700
Human mPB CD34+ cells; 15.08916 ng/mL
  Number of CD45RA− CD41−: 13200
Human mPB CD34+ cells; 45.26749 ng/mL
  Number of CD45RA− CD41−: 13700
Human mPB CD34+ cells; 135.80247 ng/mL
  Number of CD45RA− CD41−: 13300
Human mPB CD34+ cells; 407.40741 ng/mL
  Number of CD45RA− CD41−: 13700
Human mPB CD34+ cells; 1222.22222 ng/mL
  Number of CD45RA− CD41−: 14100
Human mPB CD34+ cells; 3666.66667 ng/mL
  Number of CD45RA− CD41−: 13100
Human mPB CD34+ cells; 11000 ng/mL
  Number of CD45RA− CD41−: 13800
Mouse NFS-60 cells; 0.09145 ng/mL
  F.I. (AlamarBlue fluorescence at 595 nm, cell viability): 1214
Mouse NFS-60 cells; 0.27435 ng/mL
  F.I. (AlamarBlue fluorescence at 595 nm, cell viability): 1360.925
Mouse NFS-60 cells; 0.82305 ng/mL
  F.I. (AlamarBlue fluorescence at 595 nm, cell viability): 1761
Mouse NFS-60 cells; 2.46914 ng/mL
  F.I. (AlamarBlue fluorescence at 595 nm, cell viability): 2101
Mouse NFS-60 cells; 7.40741 ng/mL
  F.I. (AlamarBlue fluorescence at 595 nm, cell viability): 2405
Mouse NFS-60 cells; 22.22222 ng/mL
  F.I. (AlamarBlue fluorescence at 595 nm, cell viability): 2646
Mouse NFS-60 cells; 66.66667 ng/mL
  F.I. (AlamarBlue fluorescence at 595 nm, cell viability): 2812.098
Mouse NFS-60 cells; 200 ng/mL
  F.I. (AlamarBlue fluorescence at 595 nm, cell viability): 3087.144
Mice neutrophils
  Percentage of Neutrophil: 16.48

B4: hGCSF: human G-CSF (protein, UniProt P09919 31-207, looked up)
Granulocyte …: TPLGPASSLPQSFLLKCLEQVRKIQGDGAALQEKLVSECATYKLCHPEELVLLGHSLGIPWAPLSSCPSQALQLAGCLSQLHSGLFLYQGLLQALEGISPELGPTLDTLQLDVADFATTIWQQMEELGMAPALQPTQGAMPAFASAFQRRAGGVLVASHLQSFLEVSYRVLRHLAQP
Human mPB CD34+ cells; 0.05081 ng/mL
  Number of CD45RA− CD41−: 4175
Human mPB CD34+ cells; 0.15242 ng/mL
  Number of CD45RA− CD41−: 3651
Human mPB CD34+ cells; 0.45725 ng/mL
  Number of CD45RA− CD41−: 3671
Human mPB CD34+ cells; 1.37174 ng/mL
  Number of CD45RA− CD41−: 4299
Human mPB CD34+ cells; 4.11523 ng/mL
  Number of CD45RA− CD41−: 5900
Human mPB CD34+ cells; 12.34568 ng/mL
  Number of CD45RA− CD41−: 7784
Human mPB CD34+ cells; 37.03704 ng/mL
  Number of CD45RA− CD41−: 10500
Human mPB CD34+ cells; 111.11111 ng/mL
  Number of CD45RA− CD41−: 12200
Human mPB CD34+ cells; 333.33333 ng/mL
  Number of CD45RA− CD41−: 14100
Human mPB CD34+ cells; 1000 ng/mL
  Number of CD45RA− CD41−: 13900
Mouse NFS-60 cells; 0.09145 ng/mL
  F.I. (AlamarBlue fluorescence at 595 nm, cell viability): 1266.554
Mouse NFS-60 cells; 0.27435 ng/mL
  F.I. (AlamarBlue fluorescence at 595 nm, cell viability): 1478.287
Mouse NFS-60 cells; 0.82305 ng/mL
  F.I. (AlamarBlue fluorescence at 595 nm, cell viability): 1752.216
Mouse NFS-60 cells; 2.46914 ng/mL
  F.I. (AlamarBlue fluorescence at 595 nm, cell viability): 2224.028
Mouse NFS-60 cells; 7.40741 ng/mL
  F.I. (AlamarBlue fluorescence at 595 nm, cell viability): 2587.222
Mouse NFS-60 cells; 22.22222 ng/mL
  F.I. (AlamarBlue fluorescence at 595 nm, cell viability): 2751.249
Mouse NFS-60 cells; 66.66667 ng/mL
  F.I. (AlamarBlue fluorescence at 595 nm, cell viability): 2815.37
Mouse NFS-60 cells; 200 ng/mL
  F.I. (AlamarBlue fluorescence at 595 nm, cell viability): 2948.509

From patent US20140050720A1, “ULTRALONG COMPLEMENTARITY DETERMINING REGIONS AND USES THEREOF” (THE SCRIPPS RESEARCH INSTITUTE, priority 2012, published 2014)
